In patent US20200223889A1 (Novo Nordisk, published 2020):
Positions of bridges follow the written chain, without caps; N, C: chain ends. Non-standard residues stand in square brackets, D forms with d. Hyp = O=C(O)[C@@H]1C[C@@H](O)CN1; Pen = CC(C)(S)[C@H](N)C(=O)O; Orn = NCCC[C@H](N)C(=O)O; Thz = O=C(O)[C@@H]1CSCN1; Dab = NCC[C@H](N)C(=O)O; Aib = CC(C)(N)C(=O)O

Tests used:
[1] = molecular target: human melanocortin 1 receptor (human, UniProt Q01726 1-317); experiment: cell-based or functional assay
[2] = molecular target: human melanocortin 4 receptor (human, UniProt P32245 1-332); experiment: cell-based or functional assay
Sequence of human melanocortin 4 receptor (P32245 whole entry): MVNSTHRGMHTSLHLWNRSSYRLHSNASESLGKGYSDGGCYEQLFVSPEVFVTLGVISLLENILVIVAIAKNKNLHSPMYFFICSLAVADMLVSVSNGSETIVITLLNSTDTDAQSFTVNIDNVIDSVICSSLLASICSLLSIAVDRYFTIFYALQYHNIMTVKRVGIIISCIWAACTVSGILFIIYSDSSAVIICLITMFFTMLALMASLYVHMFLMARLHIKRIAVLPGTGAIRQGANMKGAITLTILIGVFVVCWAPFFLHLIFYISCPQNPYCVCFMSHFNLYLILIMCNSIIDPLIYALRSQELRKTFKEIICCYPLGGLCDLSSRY

Sequence of human melanocortin 1 receptor (Q01726 whole entry): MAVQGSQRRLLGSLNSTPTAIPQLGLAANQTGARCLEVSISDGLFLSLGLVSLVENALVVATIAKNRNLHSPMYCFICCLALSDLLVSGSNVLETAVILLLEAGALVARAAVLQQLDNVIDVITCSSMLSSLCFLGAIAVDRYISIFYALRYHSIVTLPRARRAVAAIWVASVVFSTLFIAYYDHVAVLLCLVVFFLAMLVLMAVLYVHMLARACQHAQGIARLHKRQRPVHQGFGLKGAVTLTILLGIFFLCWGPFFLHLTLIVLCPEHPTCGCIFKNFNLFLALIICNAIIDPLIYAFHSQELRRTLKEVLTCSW

| Binder | MC1R cAMP EC50 [1] [nM] | MC4R cAMP EC50 [2] [nM] |
| --- | --- | --- |
| cyclo(C[Aib][Hyp][dF]RWC[Aib][Hyp][dF]RW) (disulfide 1-7; SMILES CC1(C)NC(=O)[C@@H]2CSSC[C@H](NC(=O)[C@H](Cc3c[nH]c4ccccc34)NC(=O)[C@H](CCCNC(=N)N)NC(=O)[C@@H](Cc3ccccc3)NC(=O)[C@@H]3C[C@@H](O)CN3C1=O)C(=O)NC(C)(C)C(=O)N1C[C@H](O)C[C@H]1C(=O)N[C@H](Cc1ccccc1)C(=O)N[C@@H](CCCNC(=N)N)C(=O)N[C@@H](Cc1c[nH]c3ccccc13)C(=O)N2) [Chem. 38] | > 3.7 | – |
| CXHFXWCXHFXW (Aib 2, 8; D-Phe 4, 10; Cit 5, 11; disulphide Cys1-Cys7; head-to-tail amide Cys1-Trp12) [Chem. 41] | 137 | – |
| cyclo(C[Aib]H[dF][Dab]WC[Aib]H[dF][Dab]W) (disulfide 1-7; SMILES CC1(C)NC(=O)[C@@H]2CSSC[C@H](NC(=O)[C@H](Cc3c[nH]c4ccccc34)NC(=O)[C@H](CCN)NC(=O)[C@@H](Cc3ccccc3)NC(=O)[C@H](Cc3c[nH]cn3)NC1=O)C(=O)NC(C)(C)C(=O)N[C@@H](Cc1c[nH]cn1)C(=O)N[C@H](Cc1ccccc1)C(=O)N[C@@H](CCN)C(=O)N[C@@H](Cc1c[nH]c3ccccc13)C(=O)N2) [Chem. 46] | > 5.5 | – |
| cyclo(C[Thz]H[dF]HWCK[Orn]AAW) (disulfide 1-7; SMILES C[C@@H]1NC(=O)[C@H](C)NC(=O)[C@H](CCCN)NC(=O)[C@H](CCCCN)NC(=O)[C@@H]2CSSC[C@H](NC(=O)[C@H](Cc3c[nH]c4ccccc34)NC1=O)C(=O)N1CSC[C@H]1C(=O)N[C@@H](Cc1c[nH]cn1)C(=O)N[C@H](Cc1ccccc1)C(=O)N[C@@H](Cc1c[nH]cn1)C(=O)N[C@@H](Cc1c[nH]c3ccccc13)C(=O)N2) [Chem. 115] | 134 | 0.1 |
| cyclo(C[dV]H[dF]RWC[dV]H[dF]RW) (disulfide 1-7; SMILES CC(C)[C@H]1NC(=O)[C@@H]2CSSC[C@H](NC(=O)[C@H](Cc3c[nH]c4ccccc34)NC(=O)[C@H](CCCNC(=N)N)NC(=O)[C@@H](Cc3ccccc3)NC(=O)[C@H](Cc3c[nH]cn3)NC1=O)C(=O)N[C@H](C(C)C)C(=O)N[C@@H](Cc1c[nH]cn1)C(=O)N[C@H](Cc1ccccc1)C(=O)N[C@@H](CCCNC(=N)N)C(=O)N[C@@H](Cc1c[nH]c3ccccc13)C(=O)N2) [Chem. 34] | 2.6 | – |
| cyclo(CPH[dF]HWCAH[dK][dK]R) (disulfide 1-7; SMILES C[C@@H]1NC(=O)[C@@H]2CSSC[C@H](NC(=O)[C@H](CCCNC(=N)N)NC(=O)[C@@H](CCCCN)NC(=O)[C@@H](CCCCN)NC(=O)[C@H](Cc3c[nH]cn3)NC1=O)C(=O)N1CCC[C@H]1C(=O)N[C@@H](Cc1c[nH]cn1)C(=O)N[C@H](Cc1ccccc1)C(=O)N[C@@H](Cc1c[nH]cn1)C(=O)N[C@@H](Cc1c[nH]c3ccccc13)C(=O)N2) [Chem. 121] | 189 | 0.24 |
| cyclo(C[Thz]H[dF]HWC[Orn][Orn]AAW) (disulfide 1-7; SMILES C[C@@H]1NC(=O)[C@H](C)NC(=O)[C@H](CCCN)NC(=O)[C@H](CCCN)NC(=O)[C@@H]2CSSC[C@H](NC(=O)[C@H](Cc3c[nH]c4ccccc34)NC1=O)C(=O)N1CSC[C@H]1C(=O)N[C@@H](Cc1c[nH]cn1)C(=O)N[C@H](Cc1ccccc1)C(=O)N[C@@H](Cc1c[nH]cn1)C(=O)N[C@@H](Cc1c[nH]c3ccccc13)C(=O)N2) [Chem. 116] | 231 | 0.12 |
| cyclo(C[dP]H[dF]RWC[dP]H[dF]RW) (disulfide 1-7; SMILES N=C(N)NCCC[C@@H]1NC(=O)[C@@H](Cc2ccccc2)NC(=O)[C@H](Cc2c[nH]cn2)NC(=O)[C@H]2CCCN2C(=O)[C@@H]2CSSC[C@H](NC(=O)[C@H](Cc3c[nH]c4ccccc34)NC1=O)C(=O)N1CCC[C@@H]1C(=O)N[C@@H](Cc1c[nH]cn1)C(=O)N[C@H](Cc1ccccc1)C(=O)N[C@@H](CCCNC(=N)N)C(=O)N[C@@H](Cc1c[nH]c3ccccc13)C(=O)N2) [Chem. 33] | > 1 | – |
| cyclo(C[Thz]H[dF]HWCAHE[Orn]R) (disulfide 1-7; SMILES C[C@@H]1NC(=O)[C@@H]2CSSC[C@H](NC(=O)[C@H](CCCNC(=N)N)NC(=O)[C@H](CCCN)NC(=O)[C@H](CCC(=O)O)NC(=O)[C@H](Cc3c[nH]cn3)NC1=O)C(=O)N1CSC[C@H]1C(=O)N[C@@H](Cc1c[nH]cn1)C(=O)N[C@H](Cc1ccccc1)C(=O)N[C@@H](Cc1c[nH]cn1)C(=O)N[C@@H](Cc1c[nH]c3ccccc13)C(=O)N2) [Chem. 120] | 294 | 0.08 |
| cyclo(C[Thz]H[dF]HWCKR) (disulfide 1-7; SMILES N=C(N)NCCC[C@@H]1NC(=O)[C@H](CCCCN)NC(=O)[C@@H]2CSSC[C@H](NC1=O)C(=O)N1CSC[C@H]1C(=O)N[C@@H](Cc1c[nH]cn1)C(=O)N[C@H](Cc1ccccc1)C(=O)N[C@@H](Cc1c[nH]cn1)C(=O)N[C@@H](Cc1c[nH]c3ccccc13)C(=O)N2) [Chem. 118] | 4380 | 3.53 |
| CAHFXWCAHFXW (D-Phe 4, 10; Arg(NO2) 5, 11; disulphide Cys1-Cys7; head-to-tail amide Cys1-Trp12) [Chem. 21] | > 4 | – |
| cyclo(C[Thz]H[dF]HWCARERR) (disulfide 1-7; SMILES C[C@@H]1NC(=O)[C@@H]2CSSC[C@H](NC(=O)[C@H](CCCNC(=N)N)NC(=O)[C@H](CCCNC(=N)N)NC(=O)[C@H](CCC(=O)O)NC(=O)[C@H](CCCNC(=N)N)NC1=O)C(=O)N1CSC[C@H]1C(=O)N[C@@H](Cc1c[nH]cn1)C(=O)N[C@H](Cc1ccccc1)C(=O)N[C@@H](Cc1c[nH]cn1)C(=O)N[C@@H](Cc1c[nH]c3ccccc13)C(=O)N2) [Chem. 113] | 42.2 | 0.02 |
| CXHFXWCXHFXW (Aib 2, 8; D-Phe 4, 10; AGP 5, 11; disulphide Cys1-Cys7; head-to-tail amide Cys1-Trp12) [Chem. 43] | 46.9 | – |
| cyclo(C[Thz]H[dF]HWCA[Orn]E[Orn]R) (disulfide 1-7; SMILES C[C@@H]1NC(=O)[C@@H]2CSSC[C@H](NC(=O)[C@H](CCCNC(=N)N)NC(=O)[C@H](CCCN)NC(=O)[C@H](CCC(=O)O)NC(=O)[C@H](CCCN)NC1=O)C(=O)N1CSC[C@H]1C(=O)N[C@@H](Cc1c[nH]cn1)C(=O)N[C@H](Cc1ccccc1)C(=O)N[C@@H](Cc1c[nH]cn1)C(=O)N[C@@H](Cc1c[nH]c3ccccc13)C(=O)N2) [Chem. 119] | 99.6 | 0.06 |
| cyclo(CH[dF]RW[dA]CH[dF]RW[dA]) (disulfide 1-7; SMILES C[C@H]1NC(=O)[C@H](Cc2c[nH]c3ccccc23)NC(=O)[C@H](CCCNC(=N)N)NC(=O)[C@@H](Cc2ccccc2)NC(=O)[C@H](Cc2c[nH]cn2)NC(=O)[C@@H]2CSSC[C@H](NC1=O)C(=O)N[C@@H](Cc1c[nH]cn1)C(=O)N[C@H](Cc1ccccc1)C(=O)N[C@@H](CCCNC(=N)N)C(=O)N[C@@H](Cc1c[nH]c3ccccc13)C(=O)N[C@H](C)C(=O)N2) [Chem. 6] | 2.35 | – |
| cyclo(C[Thz]H[dF]HWCKA[dK]AW) (disulfide 1-7; SMILES C[C@@H]1NC(=O)[C@H](CCCCN)NC(=O)[C@@H]2CSSC[C@H](NC(=O)[C@H](Cc3c[nH]c4ccccc34)NC(=O)[C@H](C)NC(=O)[C@@H](CCCCN)NC1=O)C(=O)N1CSC[C@H]1C(=O)N[C@@H](Cc1c[nH]cn1)C(=O)N[C@H](Cc1ccccc1)C(=O)N[C@@H](Cc1c[nH]cn1)C(=O)N[C@@H](Cc1c[nH]c3ccccc13)C(=O)N2) [Chem. 114] | 114 | 0.04 |
| cyclo(C[Thz]H[dF]HW[Pen]KKAAW) (disulfide 1-7; SMILES C[C@@H]1NC(=O)[C@H](C)NC(=O)[C@H](CCCCN)NC(=O)[C@H](CCCCN)NC(=O)[C@H]2NC(=O)[C@H](Cc3c[nH]c4ccccc34)NC(=O)[C@H](Cc3c[nH]cn3)NC(=O)[C@@H](Cc3ccccc3)NC(=O)[C@H](Cc3c[nH]cn3)NC(=O)[C@@H]3CSCN3C(=O)[C@H](CSSC2(C)C)NC(=O)[C@H](Cc2c[nH]c3ccccc23)NC1=O) [Chem. 117] | 168 | 0.2 |
| cyclo(C[dK]H[dF]HWC[dK]H[dF]HW) (disulfide 1-7; SMILES NCCCC[C@H]1NC(=O)[C@@H]2CSSC[C@H](NC(=O)[C@H](Cc3c[nH]c4ccccc34)NC(=O)[C@H](Cc3c[nH]cn3)NC(=O)[C@@H](Cc3ccccc3)NC(=O)[C@H](Cc3c[nH]cn3)NC1=O)C(=O)N[C@H](CCCCN)C(=O)N[C@@H](Cc1c[nH]cn1)C(=O)N[C@H](Cc1ccccc1)C(=O)N[C@@H](Cc1c[nH]cn1)C(=O)N[C@@H](Cc1c[nH]c3ccccc13)C(=O)N2) [Chem. 86] | 147 | – |
